Experimental findings from EP3831849A1 (LamKap Bio beta AG, dated 2021) are described below.

Like-named read-outs stand apart in the source and are kept apart here.

Experiment [1] has as its target T1, biotinylated recombinant human CEACAM5 (human, UniProt P06731 35-685, biotin on the C-terminal Avitag).
T1 construct: also called CD66e; not shown: C-terminal Avitag plus hexa-histidine tag, human Fc or mouse Fc
T1 sequence: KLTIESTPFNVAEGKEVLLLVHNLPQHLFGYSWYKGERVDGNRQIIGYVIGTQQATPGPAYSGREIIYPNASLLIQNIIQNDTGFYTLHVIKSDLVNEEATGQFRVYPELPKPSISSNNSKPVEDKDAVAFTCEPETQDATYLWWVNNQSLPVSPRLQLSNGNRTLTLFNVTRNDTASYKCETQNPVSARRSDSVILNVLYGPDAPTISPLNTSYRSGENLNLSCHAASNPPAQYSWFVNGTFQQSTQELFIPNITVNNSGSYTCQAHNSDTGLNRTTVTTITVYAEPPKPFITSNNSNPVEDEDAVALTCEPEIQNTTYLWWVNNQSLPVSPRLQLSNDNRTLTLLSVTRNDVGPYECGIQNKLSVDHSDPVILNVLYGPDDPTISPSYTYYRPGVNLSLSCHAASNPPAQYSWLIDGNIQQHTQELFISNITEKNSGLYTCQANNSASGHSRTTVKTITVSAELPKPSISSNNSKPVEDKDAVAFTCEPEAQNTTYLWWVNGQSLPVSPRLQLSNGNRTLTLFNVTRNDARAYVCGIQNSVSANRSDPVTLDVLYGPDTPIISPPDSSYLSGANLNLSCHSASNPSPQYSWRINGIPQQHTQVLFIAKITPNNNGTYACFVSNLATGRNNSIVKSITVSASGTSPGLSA
Kind of experiment: reference mAb in the competition ELISA on biotinylated human CEACAM5. In general terms: ELISA stands for enzyme-linked immunosorbent assay.

Experiment [2] concerns the target T1, biotinylated recombinant human CEACAM5. In words: ELISA; biotinylated recombinant protein on streptavidin plate; bivalent mAb titrated.
Experiment [3] shares this target. Described as above. This is another data set of the same source.
The target in experiment [4] is T2, recombinant cynomolgus monkey CEACAM5 (cynomolgus monkey (macaca fascicularis)).
T2 construct: also called cyno CEACAM5; cynomolgus CEACAM5
The description is as above.

B1: SAR (antibody, V domains shown)
VH: EVQLVESGGGLVQPGGSLRLSCAASGFVFSSYDMSWVRQAPGKGLEWVSYISSGGGITYYADSVKGRFTISRDNSKNTLYLQMNSLRAEDTAVYYCAAHYFGSSGPFAYWGQGTLVTVSS
VL: DIQMTQSPSSLSASVGDRVTITCRASENIFSYLAWYQQKPGKAPKLLIYNTRTLQSGVPSRFSGSGSGTDFTLTISSLQPEDFATYYCQHHYGTPFTFGQGTKLEIK
notes: also called mAb derived from Mab2_VLg5VHg2
Consider B1, for which the binding result in experiment [1] is listed as “binds”.

B2: AC50 (antibody, human IgG1, lambda, V domains shown)
VH: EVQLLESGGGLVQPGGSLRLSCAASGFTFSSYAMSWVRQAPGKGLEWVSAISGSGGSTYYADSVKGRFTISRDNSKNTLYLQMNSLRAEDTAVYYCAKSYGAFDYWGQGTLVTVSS
VL: QSALTQPASVSGSPGQSITISCTGTSSDVYEFRLVSWYQQHPGKAPKLMIYFDSLRPSGVSNRFSGSKSGNTASLTISGLQAEDEADYYCSSWDKFGYAFNSVFGGGTKLTVLG
notes: Bivalent IgG1 mAb; 6 carries the IgG1 Fc; also called CEACAM5/CEACAM6 mAb AC50
One may read the EC50 as the midpoint of the concentration-response curve. Take B2: the EC50 in experiment [2] was found to be 90 pM; in experiment [3], 90 pM; in experiment [4] it was 50 pM.

B3: AC49 (antibody, human IgG1, lambda, V domains shown)
VH: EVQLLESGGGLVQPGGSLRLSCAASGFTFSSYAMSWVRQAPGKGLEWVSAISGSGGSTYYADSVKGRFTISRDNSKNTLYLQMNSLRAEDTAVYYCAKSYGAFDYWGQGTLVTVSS
VL: QSVLTQPPSVSAAPGQKVTISCSGSSSNIFDSGVSWYQQLPGTAPKLLIYNHNERPSGIPDRFSGSKSGTSATLGITGLQTGDEADYYCGTWDFPPSRFVFGGGTKLTVLG
notes: Bivalent IgG1 mAb; 6 carries the IgG1 Fc; also called CEACAM5/CEACAM6 mAb AC49
Take B3: the EC50 in experiment [2] turned out to be 100 pM; in experiment [3] it was 100 pM; in experiment [4], 30 pM.

B4: SM3E (antibody, V domains shown)
VH: QVKLEQSGAEVVKPGASVKLSCKASGFNIKDSYMHWLRQGPGQRLEWIGWIDPENGDTEYAPKFQGKATFTTDTSANTAYLGLSSLRPEDTAVYYCNEGTPTGPYYFDYWGQGTLVTVSS
VL: ENVLTQSPSSMSVSVGDRVNIACSASSSVPYMHWLQQKPGKSPKLLIYLTSNLASGVPSRFSGSGSGTDYSLTISSVQPEDAATYYCQQRSSYPLTFGGGTKLEIK
notes: also called anti-CEACAM5 antibody SM3E
As for B4, the binding result in experiment [1] is listed as “binds”.
